From article PMC2171414

Assays:
Test in all cases: co-IP
[1] = target: Caf4p-HTM (S. cerevisiae) (UniProt P36130)
[2] = target: M3TH-Fis1p (3XMyc/TEV/His8-Fis1p) (S. cerevisiae) (UniProt P40515)
[3] = target: Mdv1p-HTM (S. cerevisiae) (UniProt P47025)

UniProt P40515, sequence (P40515 whole entry): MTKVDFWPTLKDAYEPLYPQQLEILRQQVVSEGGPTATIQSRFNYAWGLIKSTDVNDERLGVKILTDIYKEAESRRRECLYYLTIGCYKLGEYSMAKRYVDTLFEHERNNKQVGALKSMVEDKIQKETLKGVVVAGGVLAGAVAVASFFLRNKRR

## Caf4p-HA (Caf4p wt, residues 1–659) (from UniProt P36130 1-643) (natural protein)
[1]
  percent coimmunoprecipitated: 5%
[2]
  percent coprecipitated: 5%
[3]
  percent coprecipitated: 1%

## Caf4p-N-HA (residues 1–274) (from UniProt P36130 1-274) (domain or fragment)
[1]
  percent coimmunoprecipitated: 5%
[3]
  percent coprecipitated: 1%

B1: Mdv1p-HA (Mdv1 wt, residues 1–714) (natural protein)
chain: MSVNDQITHIGKTLSTTASAFLNYQKSNSNTQDVLTNNGPYKNLLSNTVNNASSTSYFYKRTEHGRFVKNASNTFEDIYSKTRRGDVFRNKFTDNKTCFRMLTYISDDLLNEIPTKEGLKSDADGKLLTEGGENENLRKNASKKETSLFQGFKSYLPIAELAIENTERLNYDTNGTSGTVGAKDVMSKTNERDEIHTELPNFQDSFLIPPGVETKKISSSYSPSALKSFSQTLVNSLEFLNIQKNSTLSEIRDIEVEVENLRQKKEKLLGKIANIEQNQLLLEDNLKQIDDRLDFLEEYGLEVIEANSDENAEDDGMSERKALKNDAIRNEGVTTESISSEASNLPPRRRQQLRDDNSLNRLGAFYSKSKKRHRKSFPTFQQLYEPGTKIGSIMSTHDDFLTCLDFDAPFGTLCTAGYLDHTVKIWDLSKQNKIGELAGHLATINCMQINRDYGTLVTGGRDAALKLWNLNLAQQLYQETQNLTSPTNHIDSPCVHTFEAHTDEVTALSLDPSFLVSGSQDRTIRQWDLRSGKCLQTIDLSFANVLTTSTNVDLSKSTLLTQRNERPSIGALQSFDAALATGTKDGVVRLWDLRSGKVIRTLKGHTDAITSLKFDSACLVTGSYDRTVRIWDLRTGLLNKFHAYSAPVLSLDLFQENAAVVVADEPSVQIYDSEKDESWSCVEQGNETSVSTVKYKENYMVEGRENGDVNIWAV
[1]
  percent coprecipitated: 1%

B2: Mdv1p-N-HA (residues 1–300) (domain or fragment)
chain: MSVNDQITHIGKTLSTTASAFLNYQKSNSNTQDVLTNNGPYKNLLSNTVNNASSTSYFYKRTEHGRFVKNASNTFEDIYSKTRRGDVFRNKFTDNKTCFRMLTYISDDLLNEIPTKEGLKSDADGKLLTEGGENENLRKNASKKETSLFQGFKSYLPIAELAIENTERLNYDTNGTSGTVGAKDVMSKTNERDEIHTELPNFQDSFLIPPGVETKKISSSYSPSALKSFSQTLVNSLEFLNIQKNSTLSEIRDIEVEVENLRQKKEKLLGKIANIEQNQLLLEDNLKQIDDRLDFLEEYG
[1]
  percent coprecipitated: 1%
